Drawing on patent US20140106982A1, this text covers copies among sequenced affinity-selected clones for eleven substances.

One test addresses 2C7 antibody. Briefly: VLP library affinity selection on 2C7, clones sequenced.
Substance ELWRGT (peptide) came in with a copies among sequenced affinity-selected clones of 2 copies.

LDYEGN (peptide) gave a copies among sequenced affinity-selected clones of 1 copy.

LDYERI (peptide) had a copies among sequenced affinity-selected clones of 3 copies.

In the case of LDYMRT (peptide), the copies among sequenced affinity-selected clones came to 4 copies.

LDYQRV (peptide): the copies among sequenced affinity-selected clones stood at 7 copies.

PLWKGN (peptide) registered a copies among sequenced affinity-selected clones of 1 copy.

For PLWRGT (peptide), the copies among sequenced affinity-selected clones is 1 copy.

Consider VDYERI (peptide), for which the copies among sequenced affinity-selected clones was 2 copies.

Another test deals with mAb 2H1. Briefly: VLP library affinity selection on 2H1, clones sequenced.
Turning to DTQCQF (peptide), the copies among sequenced affinity-selected clones came to 17 copies.

WDATLQPA (peptide) displayed a copies among sequenced affinity-selected clones of 2 copies.

The substance WTADLQPE (peptide) had a copies among sequenced affinity-selected clones of 1 copy.
